Reference: publication PMC3478187, “PEGylation, increasing specific activity and multiple dosing as strategies to improve the risk-benefit profile of targeted radionuclide therapy with ^177Lu-DOTA-bombesin analogues” (EJNMMI Research, 2012)
Like-named read-outs stand apart in the source and are kept apart here.

Tests used:
[1] = cited from earlier work; for GI uptake: HPLC purified
Procedure: The biodistribution data, in which 0.002 nmol of ^177Lu-AMBA and ^177Lu-DOTA-8-AOC-BN(7–14) (HPLC purified) was injected per mouse [23], and the data of ^177Lu-DOTA-PESIN (0.2 nmol peptide) [25] were compared with our biodistribution data, in which 0.075 nmol of the ^177Lu-labelled BN analogues were injected. This 0.075 nmol is the nearest possible approximation to the 0.002 nmol without HPLC purification, which is desired in clinics.

[2] = cited from earlier work
BN2/GRP receptors = target: T1, BN2/GRP receptors (Homo sapiens, UniProt P30550); experiment: Apparent receptor affinity (IC50), displacement of ^99mTc-BN(7-14) on whole PC-3 cells; format: binding
T1 construct: Since IC50 determination was done on whole PC-3 cells; endogenous in cells; host or cells: PC-3 cells (human prostate carcinoma)
Procedure: Material & Methods: PC-3 cells at confluence were placed in 48-well plates and left to attach overnight. […] After 1 h incubation at 37°C, the cells were twice washed with cold PBS and solubilized by adding 400 μl (2 x) of 1 N NaOH at 37°C. The bound radioactivity was measured in the gamma counter. The experiments were performed in triplicate.

[3] = Biodistribution in nude mice bearing PC-3 tumour xenografts; settings: female, CD-1 nu/nu, mouse, in vivo, iv, total radioactivity; for tissue uptake at 1 h / tissue uptake at 24 h: 0.3 MBq/0.075 nmol i.v., mean ± SD
Procedure: All animal experiments were conducted in compliance with the Swiss animal protection laws and with the ethical principles and guidelines for scientific animal experimentation established by the Swiss Academy of Natural Sciences. Biodistribution studies were performed with 6- to 8-week-old female CD-1 nu/nu mice (20 to 25 g) purchased from Charles River Laboratories (Sulzfeld, Germany). For the induction of tumour xenografts, each mouse received subcutaneously 8 × 10^6 PC-3 cells in 150 μl culture medium without supplements. The tumours were allowed to grow for at least 3 weeks. On the day of the experiment, the mice (3 to 6 per group) received the radioactive conjugates intravenously. […] Receptor-blocking studies were performed using 100 μg of unlabelled BN(1–14) co-injected with the corresponding radiolabelled BN analogue. At 1, 4 and 24 h post injection (p.i.), the animals were euthanised and dissected. Blood, tumours and various healthy tissues and organs were collected, weighed and examined for radioactivity. Results are expressed as percentage of injected dose per gram of tissue (% ID/g).

[4] = Metabolic stability in human plasma; format: in vitro ADME; settings: 37 °C
Procedure: The labelled analogues were incubated with human plasma (final concentration, 10 MBq/0.6 ml) at 37 °C for various time intervals up to 12 days. After incubation, proteins were precipitated with acetonitrile/ethanol (1:1) and TFA (0.1%) and then centrifuged. The supernatant was analysed with RP-high-performance liquid chromatography (HPLC) equipped with a radioactivity detector. […] The experiments were performed two times.

[5] = Octanol/PBS partition coefficient (log D); format: physicochemical; settings: shake-flask 1-octanol/PBS (1:1), pH 7.4, 30 kBq, vortex 1 min, centrifuged, gamma counter, sextuplicate, mean ± SD
Procedure: Material & Methods: The octanol/PBS partition coefficients were determined at pH 7.4. Five μl containing 30 kBq of the radiolabelled compounds in phosphate buffered saline (PBS) were added to a vial which contained 1.2 ml of 1-octanol and PBS (1:1). After vortexing for 1 min, the vial was centrifuged (5 min, 10 000 rpm) to ensure complete separation of layers. Then, 40 μl of each layer were taken in a preweighed vial and measured in a gamma counter (Packard Canberra Cobra II, Meriden, USA). Counts per weight unit of sample were calculated and log D values were determined as described by Pillarsetty et al. using the formula log10D=log10 (counts in 1 g of octanol/counts in 1 g of PBS). The experiments were performed in sextuplicate.

PC-3 xenografts = settings: ref [24]; cited from earlier work
Excerpt: Comparing our study with the therapy studies with ^177Lu-AMBA [23], ^177Lu-DOTA-PESIN [25] (2 × 28 MBq, 0.2 nmol) and ^177Lu-DOTA-8-AOC-BN(7–14), we found the tumour growth inhibition with our PEGylated BN analogue to be lower than with AMBA (approximately 73% vs. approximately 82%) but higher than with DOTA-PESIN (approximately 73% vs. approximately 45%) and roughly the same as with ^177Lu-DOTA-8-AOC-BN(7–14) (approximately 73% vs. approximately 79%) 3 weeks after the first dose. However, such a comparison is not fully conclusive since these therapy studies differ in tumour size at ...

[6] = 1 h p.i., 0.002 nmol per mouse, ref [23]
[7] = 24 h p.i., 0.002 nmol per mouse, ref [23]

T1 sequence (P30550 whole entry): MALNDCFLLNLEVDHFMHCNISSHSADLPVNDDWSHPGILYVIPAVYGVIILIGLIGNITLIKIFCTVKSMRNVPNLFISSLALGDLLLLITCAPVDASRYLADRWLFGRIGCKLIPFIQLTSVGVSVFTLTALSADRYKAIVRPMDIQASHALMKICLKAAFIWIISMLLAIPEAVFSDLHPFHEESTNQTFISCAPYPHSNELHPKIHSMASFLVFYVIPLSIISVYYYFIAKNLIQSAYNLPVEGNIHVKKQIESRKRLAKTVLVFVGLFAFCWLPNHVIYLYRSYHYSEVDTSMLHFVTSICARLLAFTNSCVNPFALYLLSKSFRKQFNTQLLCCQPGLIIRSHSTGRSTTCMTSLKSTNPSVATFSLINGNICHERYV

Compound: DO3A-CH2CO-8-aminooctanoyl-Gln-Trp-Ala-Val-Gly-His-Leu-Met-NH2 [^177Lu-AMBA]
- GI uptake [1, 6]: 11.2 %ID
- tumour uptake [1, 6]: 6.35 ± 2.23 % ID/g
- GI uptake [1, 7]: 5.8 % ID
- half-life (t1/2) in human plasma ([2]; ref [23]): 38.8 h

Compound: CCCC[C@H](NC(=O)[C@H](CC1CCCCC1)NC(=O)[C@H](Cc1c[nH]cn1)NC(=O)CNC(=O)[C@@H](NC(=O)[C@H](C)NC(=O)[C@H](Cc1c[nH]c2ccccc12)NC(=O)[C@H](CCC(N)=O)NC(=O)CCNC(=O)CCNC(=O)CC(CCCCN)NC(=O)CN1CCN(CC(=O)O)CCN(CC(=O)O)CCN(CC(=O)O)CC1)C(C)C)C(N)=O (stereo partly drawn) [DOTA-Lys-BN, DOTA-β^3hLys-βAla-βAla-Gln^7-Trp^8-Ala^9-Val^10-Gly^11-His^12-Cha^13-Nle^14-NH2]
- IC50 (BN2/GRP receptors): 2.03 ± 0.42 nM

Compound: CCCC[C@H](NC(=O)[C@H](CC1CCCCC1)NC(=O)[C@H](Cc1c[nH]cn1)NC(=O)CNC(=O)[C@@H](NC(=O)[C@H](C)NC(=O)[C@H](Cc1c[nH]c2ccccc12)NC(=O)[C@H](CCC(N)=O)NC(=O)CCNC(=O)CCNC(=O)CC(CCCCN)NC(=O)CN1CCN(CC(=O)O)CCN(CC(=O)O)CCN(CC(=O)O)CC1)C(C)C)C(N)=O (stereo partly drawn) [^177Lu-DOTA-Lys-BN, metal not drawn]
- tissue uptake at 1 h ([3]; 1 h p.i. blocked, 100 μg unlabelled BN(1–14) co-injected, n = 3 to 4, read-out: Colon uptake, blocked): 0.36 ± 0.07 %ID/g
- tissue uptake at 1 h ([3]; 1 h p.i. blocked, 100 μg unlabelled BN(1–14) co-injected, n = 3 to 4, read-out: Pancreas uptake, blocked): 0.49 ± 0.22 %ID/g
- tissue uptake at 1 h ([3]; 1 h p.i. blocked, 100 μg unlabelled BN(1–14) co-injected, n = 3 to 4, read-out: Tumour uptake, blocked): 0.55 ± 0.03 %ID/g
- tissue uptake at 1 h ([3]; 1 h p.i., n = 3 to 4, read-out: Blood uptake): 0.24 ± 0.07 %ID/g
- tissue uptake at 1 h ([3]; 1 h p.i., n = 3 to 4, read-out: Bone uptake): 0.36 ± 0.24 %ID/g
- tissue uptake at 1 h ([3]; 1 h p.i., n = 3 to 4, read-out: Colon uptake): 1.64 ± 0.4 %ID/g
- tissue uptake at 1 h ([3]; 1 h p.i., n = 3 to 4, read-out: Heart uptake): 0.14 ± 0.06 %ID/g
- tissue uptake at 1 h ([3]; 1 h p.i., n = 3 to 4, read-out: Kidneys uptake): 2.86 ± 0.63 %ID/g
- tissue uptake at 1 h ([3]; 1 h p.i., n = 3 to 4, read-out: Liver uptake): 0.26 ± 0.09 %ID/g
- tissue uptake at 1 h ([3]; 1 h p.i., n = 3 to 4, read-out: Lung uptake): 0.36 ± 0.08 %ID/g
- tissue uptake at 1 h ([3]; 1 h p.i., n = 3 to 4, read-out: Muscle uptake): 0.2 ± 0.24 %ID/g
- tissue uptake at 1 h ([3]; 1 h p.i., n = 3 to 4, read-out: Pancreas uptake): 8.68 ± 1.95 %ID/g
- tissue uptake at 1 h ([3]; 1 h p.i., n = 3 to 4, read-out: Small intestine uptake): 1.38 ± 0.41 %ID/g
- tissue uptake at 1 h ([3]; 1 h p.i., n = 3 to 4, read-out: Spleen uptake): 0.42 ± 0.12 %ID/g
- tissue uptake at 1 h ([3]; 1 h p.i., n = 3 to 4, read-out: Stomach uptake): 0.72 ± 0.19 %ID/g
- tissue uptake at 1 h ([3]; 1 h p.i., n = 3 to 4, read-out: Tumour uptake): 1.88 ± 0.47 %ID/g
- tissue to tissue ratio at 24 h ([3]; 24 h p.i., 0.075 nmol, read-out: tumour-to-liver ratio): 5.9
- tissue uptake at 24 h ([3]; 24 h p.i., n = 3 to 4, read-out: Bone uptake): 0.02 ± 0.01 %ID/g
- tissue uptake at 24 h ([3]; 24 h p.i., n = 3 to 4, read-out: Colon uptake): 0.36 ± 0.09 %ID/g
- tissue uptake at 24 h ([3]; 24 h p.i., n = 3 to 4, read-out: Heart uptake): 0.01 ± 0.01 %ID/g
- tissue uptake at 24 h ([3]; 24 h p.i., n = 3 to 4, read-out: Kidneys uptake): 1.41 ± 0.14 %ID/g
- tissue uptake at 24 h ([3]; 24 h p.i., n = 3 to 4, read-out: Liver uptake): 0.09 ± 0.02 %ID/g
- tissue uptake at 24 h ([3]; 24 h p.i., n = 3 to 4, read-out: Lung uptake): 0.02 ± 0.01 %ID/g
- tissue uptake at 24 h ([3]; 24 h p.i., n = 3 to 4, read-out: Muscle uptake): 0.01 %ID/g
- tissue uptake at 24 h ([3]; 24 h p.i., n = 3 to 4, read-out: Pancreas uptake): 4.27 ± 0.85 %ID/g
- tissue uptake at 24 h ([3]; 24 h p.i., n = 3 to 4, read-out: Small intestine uptake): 0.16 ± 0.03 %ID/g
- tissue uptake at 24 h ([3]; 24 h p.i., n = 3 to 4, read-out: Spleen uptake): 0.18 ± 0.04 %ID/g
- tissue uptake at 24 h ([3]; 24 h p.i., n = 3 to 4, read-out: Stomach uptake): 0.1 ± 0.02 %ID/g
- tissue uptake at 24 h ([3]; 24 h p.i., n = 3 to 4, read-out: Tumour uptake): 0.54 ± 0.3 %ID/g
- remaining at 120 h, 10 MBq/0.6 ml ([4]; 10 MBq/0.6 ml, 5 days, precipitation acetonitrile/ethanol (1:1) + 0.1% TFA, RP-HPLC radioactivity detector, performed two times, mean ± SD, read-out: remained intact after 5 days): 13.8 ± 5.7%
- half-life at 10 MBq/0.6 ml ([4]; 10 MBq/0.6 ml, up to 12 days, RP-HPLC radioactivity detector, performed two times, mean ± SD): 28.8 h
- half-life (t1/2) in human plasma ([4]; in vitro, as printed in hours in the discussion): 28.8 h
- logD [5]: -2.18 ± 0.07

Compound: DOTA-8-AOC-BN(7–14)NH2 [^177Lu-DOTA-8-AOC-BN(7–14)]
- GI uptake [1, 6]: 9.7 %ID
- tumour uptake [1, 6]: 2.84 ± 1.65 % ID/g
- GI uptake [1, 7]: 1.7 % ID
- tumour growth inhibition 3 weeks after the first dose (PC-3 xenografts): approximately 79%

Compound: DOTA-15-amino-4,7,10,13-tetraoxapentadecanoic acid-Gln-Trp-Ala-Val-Gly-His-Leu-Met-NH2 [^177Lu-DOTA-PESIN]
- kidney uptake ([1]; 1 h p.i., 0.2 nmol peptide, Gelofusine and polyglutamic acid co-administered, ref [25]): 3.8 ± 0.34 %ID/g
- tumour uptake ([1]; 1 h p.i., 0.2 nmol peptide, ref [25]): 11.6 ± 1.4 %ID/g
- half-life (t1/2) in human plasma ([2]; ref [25]): 8.4 h
